Data: publication PMC4132792, “Engagement of Nucleotide-binding Oligomerization Domain-containing Protein 1 (NOD1) by Receptor-interacting Protein 2 (RIP2) Is Insufficient for Signal Transduction*” (The Journal of Biological Chemistry, 2014)

Target: the molecule itself
Test: SEC; Superdex 75 HiLoad 16/60, 25 mM sodium phosphate, 100 mM NaCl, no reducing agent; monomer and dimer

Protein	stoichiometry N
His6-tagged recombinant NOD1 CARD (residues 15-110), wild type (domain or fragment, human, UniProt Q9Y239-1 15-110, looked up, NOD1 CARD domain, human, residues 15-110; the dimer is stabilised by an interprotomer disulfide bond through Cys-39 (from the cited crystal structures); also called wild-type NOD1 CARD; wild-type NOD1) ESHPHIQLLKSNRELLVTHIRNTQCLVDNLLKNDYFSAEDAEIVCACPTQPDKVRKILDLVQSKGEEVSEFFLYLLQQLADAYVDLRPWLLEIGFS	2
His6-tagged recombinant NOD1 CARD (residues 15-110) E53K (domain or fragment, human, UniProt Q9Y239-1 15-110, looked up, NOD1 CARD domain, human, residues 15-110, E53K) ESHPHIQLLKSNRELLVTHIRNTQCLVDNLLKNDYFSAKDAEIVCACPTQPDKVRKILDLVQSKGEEVSEFFLYLLQQLADAYVDLRPWLLEIGFS	2
His6-tagged recombinant NOD1 CARD (residues 15-110) D48K (domain or fragment, human, UniProt Q9Y239-1 15-110, looked up, NOD1 CARD domain, human, residues 15-110, D48K) ESHPHIQLLKSNRELLVTHIRNTQCLVDNLLKNKYFSAEDAEIVCACPTQPDKVRKILDLVQSKGEEVSEFFLYLLQQLADAYVDLRPWLLEIGFS	2
His6-tagged recombinant NOD1 CARD (residues 15-110) E56K (domain or fragment, human, UniProt Q9Y239-1 15-110, looked up, NOD1 CARD domain, human, residues 15-110, E56K) ESHPHIQLLKSNRELLVTHIRNTQCLVDNLLKNDYFSAEDAKIVCACPTQPDKVRKILDLVQSKGEEVSEFFLYLLQQLADAYVDLRPWLLEIGFS	2
His6-tagged recombinant NOD1 CARD (residues 15-110) N43S (domain or fragment, human, UniProt Q9Y239-1 15-110, looked up, NOD1 CARD domain, human, residues 15-110, N43S (a rare polymorphism)) ESHPHIQLLKSNRELLVTHIRNTQCLVDSLLKNDYFSAEDAEIVCACPTQPDKVRKILDLVQSKGEEVSEFFLYLLQQLADAYVDLRPWLLEIGFS	2
His6-tagged recombinant NOD1 CARD (residues 15-110) A55V (domain or fragment, human, UniProt Q9Y239-1 15-110, looked up, NOD1 CARD domain, human, residues 15-110, A55V (a polymorphism)) ESHPHIQLLKSNRELLVTHIRNTQCLVDNLLKNDYFSAEDVEIVCACPTQPDKVRKILDLVQSKGEEVSEFFLYLLQQLADAYVDLRPWLLEIGFS	2
